# Earlier results as cited in publication PMC5488128 (CPT: Pharmacometrics & Systems Pharmacology, 2017).
# How the values were obtained:
# [1] = subcutaneously applied, tested up to 30U
# [2] = system: glucose infusion rate (GIR); settings: type-1 patients, up to 90U insulin Lispro, GIR recording time of 12 h
Substance,dose proportionality of exposure [1],ED50 [2]
RHI: subcutaneously (s.c.) administered regular human insulin,dose‐proportional,–
"insulin lispro: prandial insulin analog, comparator in clamp study NCT02470637",–,51 U
